# Measured values published in the supplement of paper PMC10065799, “High-throughput profiling of sequence recognition by tyrosine kinases and SH2 domains using bacterial peptide display” (eLife, 2023).
# Target: FGFR1 (UniProt P11362)
# Test: phosphorylation enrichment, bacterial display (enrichment ratio); higher = better substrate or ligand; peptides without Tyr show the background
# 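Note: 11-residue human phosphosite peptides and single-mutation variants displayed on the E. coli surface, counted by deep sequencing, each peptide's frequency after selection divided by its frequency in the unselected input library; frequency after pTyr selection over input frequency; kinase dosed for 20-30% of maximal phosphorylation in three min.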
# Chain of FGFR1 (P11362 whole entry, looked up): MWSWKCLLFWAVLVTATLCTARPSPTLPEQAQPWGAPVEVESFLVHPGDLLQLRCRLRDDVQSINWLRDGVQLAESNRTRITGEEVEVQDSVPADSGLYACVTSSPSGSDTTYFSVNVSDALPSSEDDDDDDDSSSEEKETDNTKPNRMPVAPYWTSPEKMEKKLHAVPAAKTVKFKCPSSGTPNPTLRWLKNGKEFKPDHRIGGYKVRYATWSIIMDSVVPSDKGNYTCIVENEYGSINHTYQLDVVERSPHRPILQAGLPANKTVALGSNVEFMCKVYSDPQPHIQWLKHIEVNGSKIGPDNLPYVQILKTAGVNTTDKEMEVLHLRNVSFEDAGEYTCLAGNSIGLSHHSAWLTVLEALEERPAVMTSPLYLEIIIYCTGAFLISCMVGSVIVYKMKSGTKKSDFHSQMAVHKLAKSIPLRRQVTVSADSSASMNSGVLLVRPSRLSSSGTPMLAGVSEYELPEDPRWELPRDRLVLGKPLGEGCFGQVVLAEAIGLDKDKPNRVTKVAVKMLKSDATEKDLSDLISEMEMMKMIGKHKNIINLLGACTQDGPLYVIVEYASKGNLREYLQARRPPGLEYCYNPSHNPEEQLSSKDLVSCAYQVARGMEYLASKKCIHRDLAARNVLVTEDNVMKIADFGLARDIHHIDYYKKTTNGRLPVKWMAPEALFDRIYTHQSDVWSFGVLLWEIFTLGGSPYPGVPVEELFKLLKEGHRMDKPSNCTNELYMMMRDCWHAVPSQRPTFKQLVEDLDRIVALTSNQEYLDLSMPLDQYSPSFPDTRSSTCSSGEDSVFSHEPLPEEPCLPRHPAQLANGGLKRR
row,Sequence,phosphorylation enrichment
1,FKDFFYCWNTS [AICDA_Y146_F151S_YF],0.496
2,YKTPTYPYLLP [PLD2_Y578],0.794
3,KHVMPYAANKN [GRIN2A_Y1431_E1426K],0.401
4,DISEPYKVFRI [IRF8_Y107_YF],0.552
5,LNNIIYRLERA [CUX2_Y1470_V1472L],0.907
6,MCVKSYTIHYS [F5_Y2153_Y2149C],0.513
7,GGPAGYLWRAS [PKLR_Y38_R40W],0.413
8,EARRVYGDIIH [ALDH5A1_Y175],0.426
9,YLAATYPTVGQ [NF1_Y2508],0.582
10,LHNLSYQLEAE [PKP2_Y616],0.483
11,NHYKIYNLCAE [PTEN_Y68],0.409
12,IIWDSYTTNEM [GNB4_Y85_K89E],0.678
13,GRSTYYWPSPR [GAGE12J_Y10_R13S],7.32
14,KEELDYLKKNH [KRT14_Y248_A247D],0.447
15,IGHHAYGDQYR [IDH1_Y135_R132H],0.389
16,QFLMKYVWSAP [ABCD1_Y337_S342P],0.634
17,FNDSTYNQQLI [ZPLD1_Y198_YF],0.651

row,Sequence,phosphorylation enrichment
1,AVLSLYASGRT [ACTA1_Y145],0.523
2,PSQRCYVFFFS [PTEN_Y174_R173C_YF],0.837
3,FFHKFYNKSED [RYR1_Y4864_R4861H],0.665
4,PTFENYANSTQ [SLC12A3_Y70_H69N_YF],0.615
5,TPGPNYCPGYN [USH2A_Y463_R464C],0.504
6,KIITDYYVDMK [MPP4_Y566_V562I],4.12
7,SDVSSYLEGQV [GCG_Y110_A115V],0.532
8,DVELLYPLKEK [EPHX1_Y283_V285L],0.452
9,DKHGQYLIGHG [EPHB4_Y581],0.482
10,IDAVCYYRMEN [NPHS2_Y194_I192V],3.5
11,TINPIYEHVGF [CHN1_Y143_YF],0.739
12,LRFDSYWSFCN [SLC20A2_Y433_S434W_YF],1.64
13,RAMPVYKEAEH [TP63_Y231_K233E],0.763
14,RYVYYYSYLLK [PTEN_Y178],4.48
15,AELVPYYMEHH [PTPN11_Y80_Q79P],0.822
16,ADLVQYYMEHH [PTPN11_Y80_E76D],1.04

# Target: EPHB1 (UniProt P54762)
# Sequence (P54762 whole entry, looked up): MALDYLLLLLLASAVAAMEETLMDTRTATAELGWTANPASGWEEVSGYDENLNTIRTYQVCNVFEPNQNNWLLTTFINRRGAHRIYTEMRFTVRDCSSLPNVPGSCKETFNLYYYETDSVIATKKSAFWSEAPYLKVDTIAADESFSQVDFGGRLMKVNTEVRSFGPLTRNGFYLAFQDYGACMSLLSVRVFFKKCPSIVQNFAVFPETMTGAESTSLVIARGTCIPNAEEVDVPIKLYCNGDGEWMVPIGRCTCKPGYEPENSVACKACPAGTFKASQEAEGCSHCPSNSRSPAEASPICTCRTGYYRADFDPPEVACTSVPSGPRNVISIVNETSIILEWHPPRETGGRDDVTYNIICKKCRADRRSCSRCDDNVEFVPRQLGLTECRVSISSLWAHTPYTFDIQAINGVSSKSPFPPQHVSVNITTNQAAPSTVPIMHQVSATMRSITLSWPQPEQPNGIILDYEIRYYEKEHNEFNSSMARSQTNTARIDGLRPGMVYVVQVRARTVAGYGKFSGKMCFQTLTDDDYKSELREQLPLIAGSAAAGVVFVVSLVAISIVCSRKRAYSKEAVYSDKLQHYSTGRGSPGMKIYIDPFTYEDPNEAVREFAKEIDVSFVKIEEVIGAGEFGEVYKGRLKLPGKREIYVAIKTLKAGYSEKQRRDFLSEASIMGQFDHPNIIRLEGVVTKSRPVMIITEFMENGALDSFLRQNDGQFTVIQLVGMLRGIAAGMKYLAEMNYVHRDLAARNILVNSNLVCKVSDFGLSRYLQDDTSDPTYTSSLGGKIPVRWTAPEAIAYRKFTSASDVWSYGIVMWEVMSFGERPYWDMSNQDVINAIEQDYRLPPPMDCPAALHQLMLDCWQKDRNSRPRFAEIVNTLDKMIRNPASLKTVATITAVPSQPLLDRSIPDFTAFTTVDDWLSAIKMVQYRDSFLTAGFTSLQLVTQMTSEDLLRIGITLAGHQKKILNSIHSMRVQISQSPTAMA
# Test: as above
row,Sequence,phosphorylation enrichment
1,FKDFFYCWNTS [AICDA_Y146_F151S_YF],0.942
2,YKTPTYPYLLP [PLD2_Y578],0.459
3,KHVMPYAANKN [GRIN2A_Y1431_E1426K],0.301
4,DISEPYKVFRI [IRF8_Y107_YF],0.543
5,LNNIIYRLERA [CUX2_Y1470_V1472L],1.24
6,MCVKSYTIHYS [F5_Y2153_Y2149C],0.682
7,GGPAGYLWRAS [PKLR_Y38_R40W],0.454
8,EARRVYGDIIH [ALDH5A1_Y175],0.41
9,YLAATYPTVGQ [NF1_Y2508],0.357
10,LHNLSYQLEAE [PKP2_Y616],0.81
11,NHYKIYNLCAE [PTEN_Y68],0.432
12,IIWDSYTTNEM [GNB4_Y85_K89E],0.787
13,GRSTYYWPSPR [GAGE12J_Y10_R13S],10.5
14,KEELDYLKKNH [KRT14_Y248_A247D],0.554
15,IGHHAYGDQYR [IDH1_Y135_R132H],0.426
16,QFLMKYVWSAP [ABCD1_Y337_S342P],0.834
17,FNDSTYNQQLI [ZPLD1_Y198_YF],0.474

row,Sequence,phosphorylation enrichment
1,AVLSLYASGRT [ACTA1_Y145],0.622
2,PSQRCYVFFFS [PTEN_Y174_R173C_YF],0.865
3,FFHKFYNKSED [RYR1_Y4864_R4861H],0.727
4,PTFENYANSTQ [SLC12A3_Y70_H69N_YF],0.542
5,TPGPNYCPGYN [USH2A_Y463_R464C],0.468
6,KIITDYYVDMK [MPP4_Y566_V562I],1.56
7,SDVSSYLEGQV [GCG_Y110_A115V],0.616
8,DVELLYPLKEK [EPHX1_Y283_V285L],0.395
9,DKHGQYLIGHG [EPHB4_Y581],0.397
10,IDAVCYYRMEN [NPHS2_Y194_I192V],0.865
11,TINPIYEHVGF [CHN1_Y143_YF],19.7
12,LRFDSYWSFCN [SLC20A2_Y433_S434W_YF],1.04
13,RAMPVYKEAEH [TP63_Y231_K233E],0.561
14,RYVYYYSYLLK [PTEN_Y178],2.55
15,AELVPYYMEHH [PTPN11_Y80_Q79P],0.778
16,ADLVQYYMEHH [PTPN11_Y80_E76D],1.16

# Target: Fyn (UniProt P06241)
# Sequence (P06241 whole entry, looked up): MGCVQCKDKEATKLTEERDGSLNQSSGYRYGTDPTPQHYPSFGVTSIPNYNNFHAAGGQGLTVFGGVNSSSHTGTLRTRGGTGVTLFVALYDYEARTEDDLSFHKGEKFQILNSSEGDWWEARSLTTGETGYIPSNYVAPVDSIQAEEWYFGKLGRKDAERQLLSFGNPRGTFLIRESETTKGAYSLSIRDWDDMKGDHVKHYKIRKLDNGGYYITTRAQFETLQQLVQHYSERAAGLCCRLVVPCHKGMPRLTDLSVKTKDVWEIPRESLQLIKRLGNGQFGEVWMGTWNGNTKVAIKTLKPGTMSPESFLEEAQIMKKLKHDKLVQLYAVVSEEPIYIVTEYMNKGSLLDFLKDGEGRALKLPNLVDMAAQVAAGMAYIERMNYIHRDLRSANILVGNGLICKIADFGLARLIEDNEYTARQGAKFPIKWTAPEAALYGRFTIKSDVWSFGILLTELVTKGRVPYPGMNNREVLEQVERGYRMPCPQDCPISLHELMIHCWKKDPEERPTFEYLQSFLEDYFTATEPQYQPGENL
# Test: as above
row,Sequence,phosphorylation enrichment
1,FKDFFYCWNTS [AICDA_Y146_F151S_YF],0.458
2,YKTPTYPYLLP [PLD2_Y578],0.525
3,KHVMPYAANKN [GRIN2A_Y1431_E1426K],0.345
4,DISEPYKVFRI [IRF8_Y107_YF],0.628
5,LNNIIYRLERA [CUX2_Y1470_V1472L],2.59
6,MCVKSYTIHYS [F5_Y2153_Y2149C],0.517
7,GGPAGYLWRAS [PKLR_Y38_R40W],0.384
8,EARRVYGDIIH [ALDH5A1_Y175],0.514
9,YLAATYPTVGQ [NF1_Y2508],0.455
10,LHNLSYQLEAE [PKP2_Y616],0.393
11,NHYKIYNLCAE [PTEN_Y68],1.61
12,IIWDSYTTNEM [GNB4_Y85_K89E],0.747
13,GRSTYYWPSPR [GAGE12J_Y10_R13S],6.75
14,KEELDYLKKNH [KRT14_Y248_A247D],0.355
15,IGHHAYGDQYR [IDH1_Y135_R132H],0.355
16,QFLMKYVWSAP [ABCD1_Y337_S342P],0.562
17,FNDSTYNQQLI [ZPLD1_Y198_YF],0.429

row,Sequence,phosphorylation enrichment
1,AVLSLYASGRT [ACTA1_Y145],0.489
2,PSQRCYVFFFS [PTEN_Y174_R173C_YF],0.79
3,FFHKFYNKSED [RYR1_Y4864_R4861H],0.558
4,PTFENYANSTQ [SLC12A3_Y70_H69N_YF],0.437
5,TPGPNYCPGYN [USH2A_Y463_R464C],0.623
6,KIITDYYVDMK [MPP4_Y566_V562I],0.55
7,SDVSSYLEGQV [GCG_Y110_A115V],0.557
8,DVELLYPLKEK [EPHX1_Y283_V285L],0.484
9,DKHGQYLIGHG [EPHB4_Y581],0.449
10,IDAVCYYRMEN [NPHS2_Y194_I192V],0.888
11,TINPIYEHVGF [CHN1_Y143_YF],12.6
12,LRFDSYWSFCN [SLC20A2_Y433_S434W_YF],2.12
13,RAMPVYKEAEH [TP63_Y231_K233E],0.511
14,RYVYYYSYLLK [PTEN_Y178],1.15
15,AELVPYYMEHH [PTPN11_Y80_Q79P],0.626
16,ADLVQYYMEHH [PTPN11_Y80_E76D],0.668

# Tested on: c-Abl (mouse)
# Test: as above
row,Sequence,phosphorylation enrichment
1,FKDFFYCWNTS [AICDA_Y146_F151S_YF],1.08
2,YKTPTYPYLLP [PLD2_Y578],0.943
3,KHVMPYAANKN [GRIN2A_Y1431_E1426K],0.484
4,DISEPYKVFRI [IRF8_Y107_YF],1
5,LNNIIYRLERA [CUX2_Y1470_V1472L],1.31
6,MCVKSYTIHYS [F5_Y2153_Y2149C],0.726
7,GGPAGYLWRAS [PKLR_Y38_R40W],0.529
8,EARRVYGDIIH [ALDH5A1_Y175],0.596
9,YLAATYPTVGQ [NF1_Y2508],0.518
10,LHNLSYQLEAE [PKP2_Y616],1.36
11,NHYKIYNLCAE [PTEN_Y68],0.547
12,IIWDSYTTNEM [GNB4_Y85_K89E],0.829
13,GRSTYYWPSPR [GAGE12J_Y10_R13S],6.32
14,KEELDYLKKNH [KRT14_Y248_A247D],0.854
15,IGHHAYGDQYR [IDH1_Y135_R132H],0.467
16,QFLMKYVWSAP [ABCD1_Y337_S342P],0.749
17,FNDSTYNQQLI [ZPLD1_Y198_YF],0.694

row,Sequence,phosphorylation enrichment
1,AVLSLYASGRT [ACTA1_Y145],0.813
2,PSQRCYVFFFS [PTEN_Y174_R173C_YF],0.882
3,FFHKFYNKSED [RYR1_Y4864_R4861H],0.72
4,PTFENYANSTQ [SLC12A3_Y70_H69N_YF],0.531
5,TPGPNYCPGYN [USH2A_Y463_R464C],0.429
6,KIITDYYVDMK [MPP4_Y566_V562I],0.677
7,SDVSSYLEGQV [GCG_Y110_A115V],0.838
8,DVELLYPLKEK [EPHX1_Y283_V285L],0.695
9,DKHGQYLIGHG [EPHB4_Y581],0.525
10,IDAVCYYRMEN [NPHS2_Y194_I192V],1.22
11,TINPIYEHVGF [CHN1_Y143_YF],12.5
12,LRFDSYWSFCN [SLC20A2_Y433_S434W_YF],0.781
13,RAMPVYKEAEH [TP63_Y231_K233E],0.665
14,RYVYYYSYLLK [PTEN_Y178],1.83
15,AELVPYYMEHH [PTPN11_Y80_Q79P],0.733
16,ADLVQYYMEHH [PTPN11_Y80_E76D],0.751
